Results from publication PMC8795421 (2022).

B1: Biotinylated recombinant CD97, N-terminal extracellular domain (residues 24-540) with Fc domain and avidin tag (Fc fusion)
chain: RGCARWCPQNSSCVNATACRCNPGFSSFSEIITTPTETCDDINECATPSKVSCGKFSDCWNTEGSYDCVCSPGYEPVSGAKTFKNESENTCQDVDECQQNPRLCKSYGTCVNTLGSYTCQCLPGFKFIPEDPKVCTDVNECTSGQNPCHSSTHCLNNVGSYQCRCRPGWQPIPGSPNGPNNTVCEDVDECSSGQHQCDSSTVCFNTVGSYSCRCRPGWKPRHGIPNNQKDTVCEDMTFSTWTPPPGVHSQTLSRFFDKVQDLGRDSKTSSAEVTIQNVIKLVDELMEAPGDVEALAPPVRHLIATQLLSNLEDIMRILAKSLPKGPFTYISPSNTELTLMIQERGDKNVTMGQSSARMKLNWAVAAGAEDPGPAVAGILSIQNMTTLLANASLNLHSKKQAELEEIYESSIRGVQLRRLSAVNSIFLSHNNTKELNSPILFAFSHLESSDGEAGRDPPAKDVMPGPRQELLCAFWKSDSDRGGHWATEGCQVLGSKNGSTTCQCSHLSSFAILMAHY
modifications: biotin (in situ biotinylation by BirA-ER during expression)

Tests used:
Assay in all cases: BLI
[1] = biological target: B1
CD97 Ab with known Kd = biological target: CD97 Ab with known Kd
[2] = biological target: CD97 Ab with same binding site as DAF-Fc

| Binder | Kd [1] | Kd (CD97 Ab with known Kd) | Kd [2] |
| --- | --- | --- | --- |
| DAF-Fc (decay accelerating factor, DAF/CD55, fused to the human IgG1 Fc region) (Fc fusion) DCGLPPDVPNAQPALEGRTSFPEDTVITYKCEESFVKIPGEKDSVICLKGSQWSDIEEFCNRSCEVPTRLNSASLKQPYITQNYFPVGTVVEYECRPGYRREPSLSPKLTCLQNLKWSTAVEFCKKKSCPNPGEIRNGQIDVPGGILFGATISFSCNTGYKLFGSTSSFCLISGSSVQWSDPLPECREIYCPAPPQIDNGIIQGERDHYGYRQSVTYACNKGFTMIGEHSIYCTVNNDEGEWSGPPPECRGKSLTSKVPPTVQKPTTVNVPTTEVSPTSQKTTTKTTTPNAQATRSTPVSRTTKHFHETTPNKGSGTTS | 340 nM |  |  |
| B1 |  | 7700 nM | 4.5 nM |
